Measured values from patent US20260069689A1 (Regeneron, published 2026).
Changes are numbered by the printed parent chain.

B1: mAb14312 (antibody, V domains shown)
VH: EVQLVESGGGLVQPGGSLRLSCAASGFTVSRSYMTWVRQAPGKGLEWVSVIFTGGRTDHADSVKGRFTISRHNSKNTLYLQMNSLRTEDTAVYYCARVAIVGATGAFDIWGQGTMVTVSS
VL: QSVLTQPPSVSGAPGQRVTISCTGSSSNIGAGDDVHWYQQLPGTAPKLLIYGNSNRPSGVPDRFSGSKSGTSASLAITGLQAEDEADYYCQSYDSSLSGSVVFGGGTKLTVLG
B2: mAb15151 (antibody, V domains shown)
VH: QVQLVESGGGVVQPGRSLRLSCAASGFVFNSYGMHWVRQAPGKGLEWVAVLWYEGSKNYYADSVKGRFTISRDNSKNTLYLQMNSLRAEDTAVYYCARHGSGSFFGYYLDYWGQGTLVTVSS
VL: DIQMTQSPSSLSASVGDRVTITCRASHNINDFLNWYQQKPGKAPRLLIYAASSLQSGVPSRFSGSGSGTDFTLTISSLQPEDFATYYCQESYTTPPTFGQGTKLEIKR
B3: mAb15150 (antibody, V domains shown)
VH: EVQLVETGGGLIQPGGSLRLSCAAPGFIVSSNYMSWVRQAPGKGLEWVSLLYPGGSTYYADSVKGRFTISRDNSKNTLYLQMNSLRADDTAVYYCARVLPIVEDHFDYWGQGTLVTVSS
VL: DIQLTQSPSFLSASVGDRVTITCRASQGMSSYLAWYQKKPGKAPKLLIYGATILQSGVPSRFSGSGSGTEFTLTISSLQPEDFATYYCQQLNSDPLYMYTFGQGTKLEIKR
B4: mAb15165 (antibody, V domains shown)
VH: EVQLVESGGGLVQPGGSLRLSCAASGFTVSSNYMSWVRQAPGKGLEWVSAIYSGDSTYYADSVKGRFTISKDNSKNTLYLQMNSLRGEDTAVYYCARLGGALQAYDGAFDYWGQGTLATVSS
VL: QSALTQPASVSGSPGQSITISCTGTSSDFGSYNLVSWYQQHPGKAPKLMIYEGNKRPSGVSIRFSGSKSGNTASLTISGLQAEDEADYYCSSYAGSSTWVFGGGTKLTVLG
B5: mAb15166 (antibody, V domains shown)
VH: EVQLVESGGGLVQPGGSLRLSCAASGFTVTSNYMSWVRQAPGKGLEWVSAIYSGESTYYADSVKGRFTISRDSSKNTLYLQMNSLRVEDTAVYYCASIHDYSNYVGGFDPWGQGTLVTVSS
VL: B4 VL with T25P, N54T, I62N
B6: mAb15170 (antibody, V domains shown)
VH: EVQLVESGGGLVQPGGSLRLSCAATGITVSSNYMSWVRQAPGKGLEWVSLIYSGGSTFYADSVKGRFTISRHNSKNTLYLQMSSLRAEDTAVYYCARDLVDFGMDVWGQGTTVTVSS
VL: DIQLTQSPSSLSASVGDRVTITCRASQGISNYLAWYQQKPGKAPKLLIYAASTLQSGVPSRFSGSGSGTDFTLTISSLQPEDFGTYYCQQLNSDSPTFGQGTKVEIKR

Experiments:
[1] = molecular target: T1, SARS-CoV2 Spike ecto foldon Trimer expressed with a C-terminal myc-myc-hexahistidine (SARS-CoV-2, UniProt P0DTC2 14-1213); test: SPR Biacore, mAb captured by anti-hFc, 25C
T1 construct: extracellular domain

[2] = molecular target: T1, SARS-CoV2 Spike ecto foldon Trimer …; test: SPR Biacore, mAb captured by anti-hFc, 37C

Binder | Kd [1] [nM] | koff [1] [s⁻¹] | kon [1] [M⁻¹ s⁻¹] | t½ [1] [h] | Kd [2] [nM] | koff [2] [s⁻¹] | kon [2] [M⁻¹ s⁻¹] | t½ [2] [h]
B1 | 0.0272 | 5.24e-05 | 1.93e+06 | 3.67 | 0.0563 | 5.44e-05 | 966000 | 3.54
B2 | 0.187 | 6.26e-05 | 335000 | 3.08 | 0.129 | 0.000248 | 1.92e+06 | 0.777
B3 | ≤ 0.0315 | ≤ 1e-05 | 317000 | 19.2 | 0.0202 | 3.42e-05 | 1.68e+06 | 5.63
B4 | 0.0279 | 1.09e-05 | 391000 | 17.6 | 0.0542 | 0.000115 | 2.12e+06 | 1.67
B5 | 0.63 | 0.000174 | 276000 | 1.1 | 0.054 | 8.32e-05 | 1.54e+06 | 2.31
B6 | 0.11 | 1.29e-05 | 120000 | 14.9 | 0.0118 | 1e-05 | 846000 | 19.2
